Where no end group is shown, it is not given here. The star is where a group is joined. Biotin = O=C1N[C@H]2[C@H](CS[C@H]2CCCCC(=O)*)N1

A word on the Ki: it is a measure of affinity in units of concentration, obtained from inhibition or displacement.

Assay [1] concerns the target T1, E. coli proline tRNA synthetase (E. coli, UniProt P16659 1-572).
T1 construct: also called ProRS; E. coli ProRS
T1 sequence: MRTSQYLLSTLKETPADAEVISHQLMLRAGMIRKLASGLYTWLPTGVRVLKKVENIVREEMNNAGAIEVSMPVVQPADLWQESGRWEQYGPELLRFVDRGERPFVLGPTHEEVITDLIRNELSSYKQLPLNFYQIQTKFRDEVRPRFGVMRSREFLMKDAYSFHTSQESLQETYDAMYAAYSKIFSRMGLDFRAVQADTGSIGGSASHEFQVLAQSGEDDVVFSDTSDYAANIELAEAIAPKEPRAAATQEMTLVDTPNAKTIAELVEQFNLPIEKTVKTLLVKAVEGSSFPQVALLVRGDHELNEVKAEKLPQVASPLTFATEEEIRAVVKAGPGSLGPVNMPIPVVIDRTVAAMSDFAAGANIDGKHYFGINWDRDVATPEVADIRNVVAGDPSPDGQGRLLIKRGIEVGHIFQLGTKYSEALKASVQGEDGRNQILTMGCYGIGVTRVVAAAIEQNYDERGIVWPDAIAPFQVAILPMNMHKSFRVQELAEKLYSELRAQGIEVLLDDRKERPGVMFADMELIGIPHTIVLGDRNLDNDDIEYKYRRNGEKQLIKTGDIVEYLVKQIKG
As to the kind of experiment: phage ELISA on immobilized ProRS and a variety of proteins.

The target in assay [2] is T2, Agrobacterium faecalis beta-glucosidase (Agrobacterium faecalis, UniProt P12614 1-459, biotinylated with Sulfo NHS-LC-LC biotin, sites not stated).
T2 construct: captured on streptavidin beads or plates; also called β-glucosidase
T2 sequence: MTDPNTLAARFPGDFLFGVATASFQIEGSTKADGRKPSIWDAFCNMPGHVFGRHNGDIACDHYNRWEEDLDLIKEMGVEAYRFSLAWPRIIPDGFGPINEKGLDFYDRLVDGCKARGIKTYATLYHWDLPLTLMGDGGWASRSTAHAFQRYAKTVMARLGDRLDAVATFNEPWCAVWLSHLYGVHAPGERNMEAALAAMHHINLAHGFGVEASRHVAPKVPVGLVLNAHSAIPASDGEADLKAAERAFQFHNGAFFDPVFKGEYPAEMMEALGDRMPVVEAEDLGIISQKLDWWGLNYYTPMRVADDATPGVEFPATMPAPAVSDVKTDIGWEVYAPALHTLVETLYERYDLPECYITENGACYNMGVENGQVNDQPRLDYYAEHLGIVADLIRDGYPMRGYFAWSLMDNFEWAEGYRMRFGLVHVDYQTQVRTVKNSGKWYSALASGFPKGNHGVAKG
As to the kind of experiment: phage ELISA, biotinylated target on streptavidin plate.

Assay [3] has as its target T1, E. coli proline tRNA synthetase. Put plainly: ELSA, immobilized targets (legend of FIG. 17).
Assay [4] concerns the target T3, biotinylated ProRS (E. coli, UniProt P16659 1-572, biotinylated with Sulfo NHS-LC-LC biotin, sites not stated).
T3 construct: also called biotinylated E. coli ProRS
T3 sequence: T1 sequence
Put plainly: phage ELISA, biotinylated target.

Assay [5] has as its target T4, carboxypeptidase B from pig pancreas (pig, UniProt P09955 111-416).
T4 sequence (looked up): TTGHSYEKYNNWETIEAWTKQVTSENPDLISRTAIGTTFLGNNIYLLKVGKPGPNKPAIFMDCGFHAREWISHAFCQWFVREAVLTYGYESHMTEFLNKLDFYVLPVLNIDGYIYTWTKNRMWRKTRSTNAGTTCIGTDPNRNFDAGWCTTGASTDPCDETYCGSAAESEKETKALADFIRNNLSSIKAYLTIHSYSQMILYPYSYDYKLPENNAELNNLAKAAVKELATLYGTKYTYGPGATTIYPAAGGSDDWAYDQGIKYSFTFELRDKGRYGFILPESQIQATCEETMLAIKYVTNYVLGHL
Put plainly: cross reactivity phage ELISA. In general terms: In an ELISA, binding on a coated surface is turned into a signal by an enzyme label.

Assay [6] deals with T5, Yeast alcohol dehydrogenase (yeast, UniProt P00330 2-348).
T5 sequence (looked up): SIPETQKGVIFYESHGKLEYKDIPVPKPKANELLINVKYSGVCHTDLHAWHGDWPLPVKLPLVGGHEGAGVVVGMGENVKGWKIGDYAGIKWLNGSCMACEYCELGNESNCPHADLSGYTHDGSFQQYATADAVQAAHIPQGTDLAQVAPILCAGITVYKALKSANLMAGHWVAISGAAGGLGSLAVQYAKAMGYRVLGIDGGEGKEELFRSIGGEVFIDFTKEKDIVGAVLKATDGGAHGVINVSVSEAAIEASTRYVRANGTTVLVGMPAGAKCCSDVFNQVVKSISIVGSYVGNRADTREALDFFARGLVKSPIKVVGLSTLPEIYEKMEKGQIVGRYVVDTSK
As to the kind of experiment: cross reactivity phage ELISA.

The target in assay [7] is T1, E. coli proline tRNA synthetase. Put plainly: tRNA charging assay (enzyme inhibition), competitive in respect to proline.
For assay [8], the target named is T6, GST (UniProt P08515 1-218 = GST).
T6 construct: also called glutathione-S-transferase
Put plainly: ELSA: biotinylated peptide pre-complexed with SA-AP, immobilized target.
Experimental: (§1) Target protein was immobilized in microtiter wells by incubating 0.5-2.0 μg per well in 100 μl of 0.1 M NaHCO₃ overnight at 4° C. […] During the 1 hour blocking period, the SA-AP:surrogate ligand conjugate was prepared by mixing 2 μg SA-AP and 50 pmol biotinylated surrogate ligand for each well of target protein. (This corresponds to a 1:1 ratio of biotinylated peptide to biotin binding sites.) The mixture was incubated at room temperature for 15-20 minutes and then diluted with Tris-buffered saline-Tween-20 (TBST) 10 mM Tris-HCl, pH 8.0, 150 mM NaCl, 0.05% Tween-20 such that there was 100 μl of conjugate per well.
(§2) After blocking, the wells were washed once with 200 μl TBST. The surrogate ligand:SA-AP conjugate was then added (100 μl/well) and incubated at room temperature for 2 hours. […] The assay was developed by adding 100 μl of pNPP and incubating at room temperature for 5-10 minutes. The absorbance was read at 405 nm.

Assay [9] deals with streptavidin (UniProt P22629 37-163, limits assumed). Described as above.
Experimental: as §1, §2
Assay [10] concerns the target T1, E. coli proline tRNA synthetase. As to the kind of experiment: ELSA, immobilized ProRS.

Chain of streptavidin (P22629 37-163 limits assumed): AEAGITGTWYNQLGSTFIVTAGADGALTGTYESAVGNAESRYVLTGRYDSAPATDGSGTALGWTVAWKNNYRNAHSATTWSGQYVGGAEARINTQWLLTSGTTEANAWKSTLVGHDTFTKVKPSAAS
T6 sequence (P08515 whole entry): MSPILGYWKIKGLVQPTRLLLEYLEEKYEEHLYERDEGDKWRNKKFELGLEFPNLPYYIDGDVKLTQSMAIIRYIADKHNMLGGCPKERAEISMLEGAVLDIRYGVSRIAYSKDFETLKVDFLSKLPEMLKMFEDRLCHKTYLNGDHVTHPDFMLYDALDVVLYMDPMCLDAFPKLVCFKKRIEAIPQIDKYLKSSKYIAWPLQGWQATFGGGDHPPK

In the case of SRLCDIMPQTVGCSR (on M13 phage) [ProRS-binding phage peptide SRLCDIMPQTVGCSR (P library)], the binding result in assay [1] is reported as “binds”.
Take SSSTDWLNVWRQLSR (on M13 phage; group 1) [phage-displayed peptide SSSTDWLNVWRQLSR (N library)]: the binding result in [2] is given as “binds”.
On to LYSWPDEQYERP (also: biotinylated, position not given here, also called TyrRS1B; TyrRS BioKey) [biotinylated peptide TyrRS1], for which, in assay [3], the binding result is reported as “no binding”.
With SSTSLPFNRWPIYSR (on M13 phage; group 2) [phage-displayed peptide SSTSLPFNRWPIYSR (N library)], in assay [2], the binding result is “binds”.
Regarding SSGAFKPWPVYSFSR (on M13 phage; group 2) [phage-displayed peptide SSGAFKPWPVYSFSR (W library)], the binding result in assay [2] is on record as “binds”.
As for SRDWGFWDWGVDRSR (on M13 phage) [phage-displayed peptide SRDWGFWDWGVDRSR (D library)], the binding result in [4] is “binds”.
Take SSFRELKPGWWSYSR (on M13 phage) [phage-displayed peptide SSFRELKPGWWSYSR (P library)]: the “fold ELISA signal on the specific target vs any other targets tested” value (“fold ELISA signal on the specific target” below) in [5] was no less than 10 fold.
Regarding SRWCSLRPQDEGCSR (on M13 phage) [ProRS-binding phage peptide SRWCSLRPQDEGCSR (X10C library)], in assay [1], the binding result is on record as “binds”.
On the same count and under the same terms, to SRWCELWSQDIGCSR (on M13 phage) [ProRS-binding phage peptide SRWCELWSQDIGCSR (X10C library)] belongs “binds”.
On to SSEPFSVWPIYKHSR (on M13 phage; group 2) [phage-displayed peptide SSEPFSVWPIYKHSR (W library)], for which, in assay [2], the binding result is listed as “binds”.
In the case of SVSVGMKPSPRP (on M13 phage) [phage-displayed peptide SVSVGMKPSPRP (PHD12 library)], in assay [6], the “fold ELISA signal on the specific target” value was no less than 10 fold.
Turning to SSERGSGDRGEKGSR (on M13 phage) [phage-displayed peptide SSERGSGDRGEKGSR (D library)], the binding result in [4] is “binds”.
Regarding SSASYAPWPIYFASR (on M13 phage; group 2) [phage-displayed peptide SSASYAPWPIYFASR (W library)], in [2], the binding result is “binds”.
As to SRLLEVSPGWWQMSR (on M13 phage) [phage-displayed peptide SRLLEVSPGWWQMSR (P library)], in assay [5], the “fold ELISA signal on the specific target” value was no less than 10 fold.
Regarding SSQTDWRKIFQSLSR (on M13 phage; group 1) [phage-displayed peptide SSQTDWRKIFQSLSR (K library)], the binding result in [2] is listed as “binds”.
SRWCDIWPDTGSCSR (on M13 phage) [ProRS-binding phage peptide SRWCDIWPDTGSCSR (P library)]: in assay [1], the binding result is given as “binds”.
In the case of SSATDWGRVYSILSR (on M13 phage; group 1) [phage-displayed peptide SSATDWGRVYSILSR (R library)], the binding result in assay [2] is given as “binds”.
As for SREWHFWRDYNPTSR (on M13 phage) [phage-displayed peptide SREWHFWRDYNPTSR (R library)], in [4], the binding result was “binds”.
For SSWQGNVLLGNWISR (on M13 phage) [phage-displayed peptide SSWQGNVLLGNWISR (L library)], in assay [6], the “fold ELISA signal on the specific target” value is no less than 10 fold.

B1: non-biotinylated ProRS peptide (peptide)
peptide: VCAIWPDLDGC
notes: also called non-biotinylated ProRS surrogate ligand
In the case of B1, in assay [7], the Ki is greater than 500 µM.
For the molecule SSWGDYFNWRDGLSR (on M13 phage) [phage-displayed peptide SSWGDYFNWRDGLSR (N library)], the “fold ELISA signal on the specific target” value in assay [5] is no less than 10 fold.

B2: ProRS-binding phage peptide SRVCAIWPDLDGCSR (X10C library) (peptide)
peptide: SRVCAIWPDLDGCSR
notes: on M13 phage; SR linkers included as printed; also called most often isolated phage
As for B2, in assay [1], the binding result was “binds”.
The same measure, in the same setting: the entry for SRWCEVWPDKRWCSR (on M13 phage) [ProRS-binding phage peptide SRWCEVWPDKRWCSR (P library)] is “binds”.
As for SSLLNESRLQWSTSR (on M13 phage) [phage-displayed peptide SSLLNESRLQWSTSR (R library)], in [6], the “fold ELISA signal on the specific target” value is no less than 10 fold.
The same measure, in the same setting: to SRQVEVFKPWPVYSR (on M13 phage; group 2) [phage-displayed peptide SRQVEVFKPWPVYSR (K library)] belongs no less than 10 fold; to SSNYWWQSPVLSRHSR (on M13 phage) [phage-displayed peptide SSNYWWQSPVLSRHSR (CWL library)], no less than 10 fold.

B3: biotinylated UL44 surrogate ligand peptide (peptide)
peptide: Biotin-SGSGEHVCSWGWGRC
modifications: not fully specified (bridges); cysteine pairing not given here
notes: synthetic; pre-complexed with streptavidin alkaline phosphatase (SA-AP) in the ELSA; also called UL44 BioKey
As to B3, the binding result in [8], in [9] and in assay [10] was “no binding” in each case.
As for SRDWGFWRLPESMASR (on M13 phage) [phage-displayed peptide SRDWGFWRLPESMASR (CWL library)], in assay [4], the binding result is recorded as “binds”.
Take SSSVPFAPWPVYASR (on M13 phage; group 2) [phage-displayed peptide SSSVPFAPWPVYASR (P library)]: the binding result in assay [2] was “binds”.
On to SRWCELWPEGSGCSR (on M13 phage) [ProRS-binding phage peptide SRWCELWPEGSGCSR (P library)], for which, in [1], the binding result is listed as “binds”.
Same read-out and setting: the entry for SRLCEVWPQTAGCSR (on M13 phage) [ProRS-binding phage peptide SRLCEVWPQTAGCSR (X10C library)] is “binds”.
Turning to SSSFKPWPIYLGSSR (on M13 phage; group 2) [phage-displayed peptide SSSFKPWPIYLGSSR (P library)], the “fold ELISA signal on the specific target” value in assay [6] was no less than 10 fold.
